Assay results: PMC4585563, “Small angle X-ray scattering studies of CTNNBL1 dimerization and CTNNBL1/CDC5L complex” (Scientific Reports, 2015)

B1: CTNNBL1 (residues 77-563), wild type (domain or fragment, human, UniProt Q8WYA6 77-563, looked up)
chain: LDESSVKKMILTFEKRSYKNQELRIKFPDNPEKFMESELDLNDIIQEMHVVATMPDLYHLLVELNAVQSLLGLLGHDNTDVSIAVVDLLQELTDIDTLHESEEGAEVLIDALVDGQVVALLVQNLERLDESVKEEADGVHNTLAIVENMAEFRPEMCTEGAQQGLLQWLLKRLKAKMPFDANKLYCSEVLAILLQDNDENRELLGELDGIDVLLQQLSVFKRHNPSTAEEQEMMENLFDSLCSCLMLSSNRERFLKGEGLQLMNLMLREKKISRSSALKVLDHAMIGPEGTDNCHKFVDILGLRTIFPLFMKSPRKIKKVGTTEKEHEEHVCSILASLLRNLRGQQRTRLLNKFTENDSEKVDRLMELHFKYLGAMQVADKKIEGEKHDMVRRGEIIDNDTEEEFYLRRLDAGLFVLQHICYIMAEICNANVPQIRQRVHQILNMRGSSIKIVRHIIKEYAENIGDGRSPEFRENEQKRILGLLENF
notes: human CTNNBL1, residues 77-563, amplified from a human cDNA library; Dimer by SAXS at 0-200 mM NaCl and by SEC at 150 mM NaCl; monomer at 300-400 mM NaCl; also called native CTNNBL1; wild-type CTNNBL1; source: E. coli BL21(DE3)-T1R, purified (Ni-NTA, TEV protease, Ni-NTA, Superdex200); not shown: 6xHis, N-terminal, cleaved; VHb (bacterial hemoglobin), N-terminal, cleaved
B2: CDC5L^141-377 (domain or fragment, human, UniProt Q99459 141-377, looked up)
chain: PIDMDEDELEMLSEARARLANTQGKKAKRKAREKQLEEARRLAALQKRRELRAAGIEIQKKRKRKRGVDYNAEIPFEKKPALGFYDTSEENYQALDADFRKLRQQDLDGELRSEKEGRDRKKDKQHLKRKKESDLPSAILQTSGVSEFTKKRSKLVLPAPQISDAELQEVVKVGQASEIARQTAEESGITNSASSTLLSEYNVTNNSVALRTPRTPASQDRILQEAQNLMALTNVDT
notes: CDC5L of the human hPrp19/CDC5L complex, residues 141-377 of the N-terminal domain; holds NLS3 (residues 200-206: KKRKRKR); cloned into pET-30a(+); also called 6xHis-tagged CDC5L 141-377; source: E. coli, purified as CTNNBL1 with 300 mM NaCl in the buffers, without TEV protease
B3: CDC5L^141-285 (domain or fragment, human, UniProt Q99459 141-285, looked up)
chain: PIDMDEDELEMLSEARARLANTQGKKAKRKAREKQLEEARRLAALQKRRELRAAGIEIQKKRKRKRGVDYNAEIPFEKKPALGFYDTSEENYQALDADFRKLRQQDLDGELRSEKEGRDRKKDKQHLKRKKESDLPSAILQTSGV
notes: CDC5L of the human hPrp19/CDC5L complex, residues 141-285; holds NLS3 (residues 200-206: KKRKRKR); cloned into pET-30a(+); also called 6xHis-tagged CDC5L 141-285; source: E. coli, purified as CTNNBL1 with 300 mM NaCl in the buffers, without TEV protease
B4: CDC5L^197-285 (domain or fragment, human, UniProt Q99459 197-285, looked up)
chain: EIQKKRKRKRGVDYNAEIPFEKKPALGFYDTSEENYQALDADFRKLRQQDLDGELRSEKEGRDRKKDKQHLKRKKESDLPSAILQTSGV
notes: CDC5L of the human hPrp19/CDC5L complex, residues 197-285; holds NLS3 (residues 200-206: KKRKRKR); cloned into pPosKJ; pPosKJ adds 6xHis and VHb, both removed only by TEV protease; the His-tagged proteins were made without TEV, so VHb should still be on the chain in the pull-down; also called 6xHis-tagged CDC5L 197-285; source: E. coli, purified as CTNNBL1 with 300 mM NaCl in the buffers, without …

Assays:
[1] = molecular target: the molecule itself; assay: SAXS; CTNNBL1 alone in solution, 200 mM NaCl, 4 °C, 1.0-5.0 mg/ml; oligomeric state from molecular mass (absolute I(0)), Guinier and p(r) analysis
[2] = molecular target: the molecule itself; assay: SAXS; CTNNBL1 alone in solution, 100 mM NaCl, 4 °C, 1.0-5.0 mg/ml; oligomeric state from molecular mass (absolute I(0)), Guinier and p(r) analysis
[3] = molecular target: the molecule itself; assay: SAXS; CTNNBL1 alone in solution, 0 mM NaCl, 4 °C, 1.0-5.0 mg/ml; oligomeric state from molecular mass (absolute I(0)), Guinier and p(r) analysis
[4] = molecular target: the molecule itself; assay: SEC; CDC5L truncations alone; data not shown
[5] = molecular target: B1; assay: pull-down; 6xHis-tagged CDC5L truncations mixed with untagged CTNNBL1 in 50 mM Tris-HCl pH 8.0, 300 mM NaCl, dialysed against 50 mM Tris-HCl without NaCl at 4 °C overnight, loaded on Ni-NTA resin, washed with 10 mM imidazole, eluted with 300 mM imidazole, SDS-PAGE; details: both partners purified

| Binder | stoichiometry N [1] | stoichiometry N [2] | stoichiometry N [3] | stoichiometry N [4] | binding result [5] |
| --- | --- | --- | --- | --- | --- |
| B1 | 2 | 2 | 2 |  |  |
| B2 |  |  |  | 2 | binds |
| B3 |  |  |  | 2 | binds |
| B4 |  |  |  |  | binds |
